From patent publication US20240117030A1 (Pfizer, published 2024)
Changes are numbered by the printed parent chain.

T1: human IL-4 (human, UniProt P05112 25-153)
T1 sequence (looked up): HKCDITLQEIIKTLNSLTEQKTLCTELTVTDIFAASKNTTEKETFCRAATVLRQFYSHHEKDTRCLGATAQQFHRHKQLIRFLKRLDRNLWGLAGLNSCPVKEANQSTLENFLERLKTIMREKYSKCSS

T2: recombinant human IL-4 (human, UniProt P05112 25-153)
T2 sequence (looked up): T1 sequence (looked up)

T3: recombinant human IL-33 (human, UniProt O95760 112-270, limits assumed)
T3 sequence (looked up): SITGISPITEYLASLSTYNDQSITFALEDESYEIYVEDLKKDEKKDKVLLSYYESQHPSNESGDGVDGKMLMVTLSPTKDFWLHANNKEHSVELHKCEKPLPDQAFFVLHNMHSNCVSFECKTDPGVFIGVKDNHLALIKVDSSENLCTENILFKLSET

B1: IL413TSLP-0250 (other)
heavy: EVTLRESGPALVKPTQTLTLTCTFSGFSLSNFGEGLSWIRQPPGKGLEWLAHIYWDDDKRYNPSLKSRLTISKDTSRNQVVLTMTNMDPVDTATYYCARRETVFYWYFDVWGQGTTVTVSSASTKGPSVFPEAPSSKSTSGGTAALGCLVKDYFPEPVTVSWNSGALTSGVHTFPAVLQSSGLYSLGSVVTVPSSSLGTQTYICNVNHKPSNTKVDKKVEPKSCDKTHTCPPCPAPEAAGAPSVFLFPPKPKDTLMISRTPEVTCVVVDVSHEDPEVKFNWYVDGVEVHNAKTKPREEQYNSTYRVVSVLTVLHQDWLNGKEYKCKVSNKALPAPIEKTISKAKGQPREPQVYTLPPCREEMTKNQVSLSCAVKGFYPSDIAVEWESNGQPENNYKTTPPVLDSDGSFFLVSKLTVDKSRWQQGNVFSCSVMHEALHNHYTQKSLSLSPGK
chain 1: SYVLTQPPSVSVAPGQTARITCGGNNLGSKSVHWYQQKPGQAPVLVVYDDSDRPSWIPERFSGSNSGNTATLTISRGEAGDEADYYCQVWDSSSDHVVFGGGTKLTVLGQPKAAPSVTLFPPSSEELQANKATLVCLISDFYPGAVTVAWKADSSPVKAGVETTTPSKQSNNKYAASSYLSLTPEQWKSHRSYSCQVTHEGSTVEKTVAPTECSGGGGSEVQLVESGGGLVQPGGSLRLSCAASGFTFSSYAMSWVRQAPGKGLEWVASISSGDTTYYPDSVKGRFTISRDNAKNSLYLQMNSLRAEDTAVYYCARNEGYYFGLTLWGQGTLVTVSSASTKGPSVFPKAPSSKSTSGGTAALGCLVKDYFPEPVTVSWNSGALTSGVHTFPAVLQSSGLYSLSSSVTVPSSSLGTQTYICNVNHKPSNTKVDKKVEPKSCDKTHTCPPCPAPEAAGAPSVFLFPPKPKDTLMISRTPEVTCVVVDVSHEDPEVKFNWYVDGVEVHNAKTKPREEQYNSTYRVVSVLTVLHQDWLNGKEYKCKVSNKALPAPIEKTISKAKGQPREPQVCTLPPSREEMTKNQVSLWCLVKGFYPSDIAVEWESNGQPENNYKTTPPVLDSDGSFFLYSKLTVDKSRWQQGNVFSCSVMHEALHNHYTQKSLSLSPGK
light 1: DIQMTQSPSSLSASVGDRVTITCKASQSVDEDGDSYMNWYQQKPGKAPKLLIYAASNLESGVPSRFSGSGSGTDFTLTISSLQPEDFATYYCQQSNEDPPTFGGGTKVEIKRTVAAPSVFIFPPSDEQLKSGTASVSCLLNNFYPREAKVQWKVDNALQSGNSQESVTEQDSKDSTYSLKSTLTLSKADYEKHKVYACEVTHQGLSSPVTKSFNRGEC
light 2: B1 light 1 with Q27E, E31H, D32F, D34W, Y36L, M37V, N38H, A54R, P100W, K180D
chain 2: not shown
B2: IL13433-0006 (other)
heavy: EVQLVESGGGLVQPGGSLRLSCAASGFTFSSYAMSWVRQAPGKGLEWVASISSGDTTYYPDSVKGRFTISRDNAKNSLYLQMNSLRAEDTAVYYCARNEGYYFGLTLWGQGTLVTVSSASTKGPSVFPKAPSSKSTSGGTAALGCLVKDYFPEPVTVSWNSGALTSGVHTFPAVLQSSGLYSLSSSVTVPSSSLGTQTYICNVNHKPSNTKVDKKVEPKSCDKTHTCPPCPAPEAAGAPSVFLFPPKPKDTLMISRTPEVTCVVVDVSHEDPEVKFNWYVDGVEVHNAKTKPREEQYNSTYRVVSVLTVLHQDWLNGKEYKCKVSNKALPAPIEKTISKAKGQPREPQVCTLPPSREEMTKNQVSLWCLVKGFYPSDIAVEWESNGQPENNYKTTPPVLDSDGSFFLYSKLTVDKSRWQQGNVFSCSVMHEALHNHYTQKSLSLSPGK
chain 1: DIQMTQSPSSLSASVGDRVTITCKASQNINKHLDWYQQKPGKAPKLLIYFTNNLQTGVPSRFSGSGSGTDFTLTISSLQPEDFATYYCFQYNQGWTFGGGTKVEIKRTVAAPSVFIFPPSDEQLKSGTASVVCLLNNFYPREAKVQWKVDNALQSGNSQESVTEQDSKDSTYSLSSTLTLSKADYEKHKVYACEVTHQGLSSPVTKSFNRGECGGGGSEVTLRESGPALVKPTQTLTLTCTFSGFSLSNFGEGLSWIRQPPGKGLEWLAHIYWDDDKRYNPSLKSRLTISKDTSRNQVVLTMTNMDPVDTATYYCARRETVFYWYFDVWGQGTTVTVSSASTKGPSVFPEAPSSKSTSGGTAALGCLVKDYFPEPVTVSWNSGALTSGVHTFPAVLQSSGLYSLGSVVTVPSSSLGTQTYICNVNHKPSNTKVDKKVEPKSCDKTHTCPPCPAPEAAGAPSVFLFPPKPKDTLMISRTPEVTCVVVDVSHEDPEVKFNWYVDGVEVHNAKTKPREEQYNSTYRVVSVLTVLHQDWLNGKEYKCKVSNKALPAPIEKTISKAKGQPREPQVYTLPPCREEMTKNQVSLSCAVKGFYPSDIAVEWESNGQPENNYKTTPPVLDSDGSFFLVSKLTVDKSRWQQGNVFSCSVMHEALHNHYTQKSLSLSPGK
light 1: B1 light 1 with Q27E, E31H, D32F, D34W, Y36L, M37V, N38H, A54R, P100W, K180D
light 2: B1 light 1
chain 2: EVQLVESGGGLVQPGGSLRLSCAASGFTFSSYWMYWVRQAPGKGLEWVAAITPNAGEDYYPESVKGRFTISRDNAKNSLYLQMNSLRAEDTAVYYCARGHYYYTSYSLGYWGQGTLVTVSSASTKGPSVFPLAPSSKSTSGGTAALGCLVKDYFPEPVTVSWNSGALTSGVHTFPAVLQSSGLYSLSSVVTVPSSSLGTQTYICNVNHKPSNTKVDKKVEPKSC

Assays:
Assay in all cases: cell-based or functional assay
[1] = target: human IL-13 (human, UniProt P35225 35-146)
Chain of human IL-13 (P35225 35-146 limits assumed): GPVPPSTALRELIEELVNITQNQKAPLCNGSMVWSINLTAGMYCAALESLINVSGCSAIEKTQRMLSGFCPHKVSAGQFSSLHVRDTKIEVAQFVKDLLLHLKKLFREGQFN

[2] = target: T1, human IL-4
[3] = target: T2, recombinant human IL-4
[4] = target: recombinant human IL-13 (human, UniProt P35225 35-146)
Chain of recombinant human IL-13 (P35225 35-146 limits assumed): as above

[5] = target: T3, recombinant human IL-33

Binder	a-hIL-13 bioassay (IC50, pM) [1] [pM]	a-hIL-4 bioassay IC50, pM) [2] [pM]	IL-4 Induced CD23 Expression, potency of cytokine neutralization [3] [pM]	IL-13 Induced CD23 Expression, potency of cytokine neutralization [4] [pM]	IL-33 WT Activation of SEAP Reporter Cells, potency of cytokine neutralization [5] [pM]
B1	102	3.68	–	–	–
B2	–	–	10.3	9.01	112
